Reference: IntAct's records for PubMed 23208550

B1: Arrestin domain-containing protein 3 (Homo sapiens), Q96B67 (parent)
chain: MVLGKVKSLTISFDCLNDSNVPVYSSGDTVSGRVNLEVTGEIRVKSLKIHARGHAKVRWTESRNAGSNTAYTQNYTEEVEYFNHKDILIGHERDDDNSEEGFHTIHSGRHEYAFSFELPQTPLATSFEGRHGSVRYWVKAELHRPWLLPVKLKKEFTVFEHIDINTPSLLSPQAGTKEKTLCCWFCTSGPISLSAKIERKGYTPGESIQIFAEIENCSSRMVVPKAAIYQTQAFYAKGKMKEVKQLVANLRGESLSSGKTETWNGKLLKIPPVSPSILDCSIIRVEYSLMVYVDIPGAMDLFLNLPLVIGTIPLHPFGSRTSSVSSQCSMNMNWLSLSLPERPEAPPSYAEVVTEEQRRNNLAPVSACDDFERALQGPLFAYIQEFRFLPPPLYSEIDPNPDQSADDRPSCPSR

Tests used:
[1] = variants of: B1; settings: with nedd4_human NEDD4, P46934
nedd4_human NEDD4, P46934, sequence (P46934 whole entry): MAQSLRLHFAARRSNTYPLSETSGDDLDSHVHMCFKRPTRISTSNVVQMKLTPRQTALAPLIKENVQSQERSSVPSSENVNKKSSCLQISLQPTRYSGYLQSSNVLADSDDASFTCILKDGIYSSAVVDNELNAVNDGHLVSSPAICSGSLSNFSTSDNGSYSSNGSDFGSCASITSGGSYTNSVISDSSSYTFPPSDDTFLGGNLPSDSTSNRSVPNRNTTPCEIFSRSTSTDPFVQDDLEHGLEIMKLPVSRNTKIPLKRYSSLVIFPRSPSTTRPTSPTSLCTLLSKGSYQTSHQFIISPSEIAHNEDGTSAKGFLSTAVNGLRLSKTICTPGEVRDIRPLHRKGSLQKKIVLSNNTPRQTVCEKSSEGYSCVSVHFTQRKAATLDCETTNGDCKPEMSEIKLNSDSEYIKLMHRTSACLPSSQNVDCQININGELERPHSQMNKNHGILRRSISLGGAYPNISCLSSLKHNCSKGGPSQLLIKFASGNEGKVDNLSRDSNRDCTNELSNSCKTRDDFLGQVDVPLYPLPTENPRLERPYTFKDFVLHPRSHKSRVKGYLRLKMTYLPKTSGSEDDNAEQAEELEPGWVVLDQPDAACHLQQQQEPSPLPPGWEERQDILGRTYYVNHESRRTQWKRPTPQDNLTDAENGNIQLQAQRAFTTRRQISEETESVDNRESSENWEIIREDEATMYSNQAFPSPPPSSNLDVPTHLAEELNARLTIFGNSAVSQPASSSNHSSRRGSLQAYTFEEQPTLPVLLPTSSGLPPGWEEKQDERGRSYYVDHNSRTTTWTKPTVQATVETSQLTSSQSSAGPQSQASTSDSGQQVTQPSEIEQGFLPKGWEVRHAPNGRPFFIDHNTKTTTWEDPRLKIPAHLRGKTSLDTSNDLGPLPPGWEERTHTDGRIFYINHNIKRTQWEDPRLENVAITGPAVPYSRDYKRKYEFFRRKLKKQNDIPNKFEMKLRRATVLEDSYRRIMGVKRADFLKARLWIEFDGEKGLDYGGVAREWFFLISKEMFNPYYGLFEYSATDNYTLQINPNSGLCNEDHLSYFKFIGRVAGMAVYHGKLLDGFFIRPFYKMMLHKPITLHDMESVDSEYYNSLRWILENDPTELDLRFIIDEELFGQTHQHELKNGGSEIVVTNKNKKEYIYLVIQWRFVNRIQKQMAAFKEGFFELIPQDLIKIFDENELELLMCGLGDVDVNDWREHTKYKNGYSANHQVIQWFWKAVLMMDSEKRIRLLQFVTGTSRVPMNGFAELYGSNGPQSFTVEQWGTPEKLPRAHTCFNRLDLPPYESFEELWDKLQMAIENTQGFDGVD

[2] = variants of: B1; settings: with hgs_human HGS
[3] = variants of: B1; settings: with adrb2_human ADRB2, P07550
[4] = variants of: B1; settings: with adrb2_human ADRB2, P07550; remark: listed apart in the source

| Variant | effect of a mutation on the interaction [1] | effect of a mutation on the interaction [2] | effect of a mutation on the interaction [3] | effect of a mutation on the interaction [4] |
| --- | --- | --- | --- | --- |
| MVLGKVKSLTISFDCLNDSNVPVYSSGDTVSGRVNLEVTGEIRVKSLKIHARGHAKVRWTESRNAGSNTAYTQNYTEEVEYFNHKDILIGHERDDDNSEEGFHTIHSGRHEYAFSFELPQTPLATSFEGRHGSVRYWVKAELHRPWLLPVKLKKEFTVFEHIDINTPSLLSPQAGTKEKTLCCWFCTSGPISLSAKIERKGYTPGESIQIFAEIENCSSRMVVPKAAIYQTQAFYAKGKMKEVKQLVANLRGESLSSGKTETWNGKLLKIPPVSPSILDCSIIRVEYSLMVYVDIPGAMDLFLNLPLVIGTIPLHPFGSRTSSVSSQCSMNMNWLSLSLPERPEAAPSYAEVVTEEQRRNNLAPVSACDDFERALQGPLFAYIQEFRFLPPPLYSEIDPNPDQSADDRPSCPSR [P346A] | disrupting interaction | disrupting interaction | decreasing interaction | disrupting interaction |
| MVLGKVKSLTISFDCLNDSNVPVYSSGDTVSGRVNLEVTGEIRVKSLKIHARGHAKVRWTESRNAGSNTAYTQNYTEEVEYFNHKDILIGHERDDDNSEEGFHTIHSGRHEYAFSFELPQTPLATSFEGRHGSVRYWVKAELHRPWLLPVKLKKEFTVFEHIDINTPSLLSPQAGTKEKTLCCWFCTSGPISLSAKIERKGYTPGESIQIFAEIENCSSRMVVPKAAIYQTQAFYAKGKMKEVKQLVANLRGESLSSGKTETWNGKLLKIPPVSPSILDCSIIRVEYSLMVYVDIPGAMDLFLNLPLVIGTIPLHPFGSRTSSVSSQCSMNMNWLSLSLPERPEAPPSAAEVVTEEQRRNNLAPVSACDDFERALQGPLFAYIQEFRFLPPPLYSEIDPNPDQSADDRPSCPSR [Y349A] | disrupting interaction | disrupting interaction | decreasing interaction | disrupting interaction |
| MVLGKVKSLTISFDCLNDSNVPVYSSGDTVSGRVNLEVTGEIRVKSLKIHARGHAKVRWTESRNAGSNTAYTQNYTEEVEYFNHKDILIGHERDDDNSEEGFHTIHSGRHEYAFSFELPQTPLATSFEGRHGSVRYWVKAELHRPWLLPVKLKKEFTVFEHIDINTPSLLSPQAGTKEKTLCCWFCTSGPISLSAKIERKGYTPGESIQIFAEIENCSSRMVVPKAAIYQTQAFYAKGKMKEVKQLVANLRGESLSSGKTETWNGKLLKIPPVSPSILDCSIIRVEYSLMVYVDIPGAMDLFLNLPLVIGTIPLHPFGSRTSSVSSQCSMNMNWLSLSLPERPEAPASYAEVVTEEQRRNNLAPVSACDDFERALQGPLFAYIQEFRFLPPPLYSEIDPNPDQSADDRPSCPSR [P347A] | disrupting interaction | disrupting interaction | decreasing interaction | disrupting interaction |
| MVLGKVKSLTISFDCLNDSNVPVYSSGDTVSGRVNLEVTGEIRVKSLKIHARGHAKVRWTESRNAGSNTAYTQNYTEEVEYFNHKDILIGHERDDDNSEEGFHTIHSGRHEYAFSFELPQTPLATSFEGRHGSVRYWVKAELHRPWLLPVKLKKEFTVFEHIDINTPSLLSPQAGTKEKTLCCWFCTSGPISLSAKIERKGYTPGESIQIFAEIENCSSRMVVPKAAIYQTQAFYAKGKMKEVKQLVANLRGESLSSGKTETWNGKLLKIPPVSPSILDCSIIRVEYSLMVYVDIPGAMDLFLNLPLVIGTIPLHPFGSRTSSVSSQCSMNMNWLSLSLPERPEAPPSYAEVVTEEQRRNNLAPVSACDDFERALQGPLFAYIQEFRFLPAPLYSEIDPNPDQSADDRPSCPSR [P391A] | disrupting interaction | disrupting interaction | decreasing interaction | disrupting interaction |

The next lines start with the values.

| effect of a mutation on the interaction [1] | effect of a mutation on the interaction [2] | effect of a mutation on the interaction [3] | effect of a mutation on the interaction [4] | Variant |
| --- | --- | --- | --- | --- |
| disrupting interaction | disrupting interaction | decreasing interaction | disrupting interaction | MVLGKVKSLTISFDCLNDSNVPVYSSGDTVSGRVNLEVTGEIRVKSLKIHARGHAKVRWTESRNAGSNTAYTQNYTEEVEYFNHKDILIGHERDDDNSEEGFHTIHSGRHEYAFSFELPQTPLATSFEGRHGSVRYWVKAELHRPWLLPVKLKKEFTVFEHIDINTPSLLSPQAGTKEKTLCCWFCTSGPISLSAKIERKGYTPGESIQIFAEIENCSSRMVVPKAAIYQTQAFYAKGKMKEVKQLVANLRGESLSSGKTETWNGKLLKIPPVSPSILDCSIIRVEYSLMVYVDIPGAMDLFLNLPLVIGTIPLHPFGSRTSSVSSQCSMNMNWLSLSLPERPEAPPSYAEVVTEEQRRNNLAPVSACDDFERALQGPLFAYIQEFRFLPPALYSEIDPNPDQSADDRPSCPSR [P392A] |
| disrupting interaction | disrupting interaction | decreasing interaction | disrupting interaction | MVLGKVKSLTISFDCLNDSNVPVYSSGDTVSGRVNLEVTGEIRVKSLKIHARGHAKVRWTESRNAGSNTAYTQNYTEEVEYFNHKDILIGHERDDDNSEEGFHTIHSGRHEYAFSFELPQTPLATSFEGRHGSVRYWVKAELHRPWLLPVKLKKEFTVFEHIDINTPSLLSPQAGTKEKTLCCWFCTSGPISLSAKIERKGYTPGESIQIFAEIENCSSRMVVPKAAIYQTQAFYAKGKMKEVKQLVANLRGESLSSGKTETWNGKLLKIPPVSPSILDCSIIRVEYSLMVYVDIPGAMDLFLNLPLVIGTIPLHPFGSRTSSVSSQCSMNMNWLSLSLPERPEAPPSYAEVVTEEQRRNNLAPVSACDDFERALQGPLFAYIQEFRFLPPPLASEIDPNPDQSADDRPSCPSR [Y394A] |
